What was measured:
human endoglin (human) [1] = biological target: human endoglin (human) (UniProt P17813); test: FACS, indirect immunofluorescence on HUVEC, antibody at 10 µg/ml, MTSA control subtracted
human endoglin (human) [2] = biological target: human endoglin (human) (UniProt P17813); test: cell-based or functional assay
human endoglin (human) [3] = biological target: human endoglin (human) (UniProt P17813); test: competitive binding inhibition on HUVEC by FACS; unlabelled TEC-4 against biotinylated TEC-11 as competitor, ratio 1:1
human endoglin (human) [4] = biological target: human endoglin (human) (UniProt P17813); test: FACS, postconfluent HUVEC stained with 20 µg/ml TEC-11, sorted endoglin^lo fraction; mean (SD) of 2 studies
human endoglin (human) [5] = biological target: human endoglin (human) (UniProt P17813); test: FACS, postconfluent HUVEC stained with 20 µg/ml TEC-11, sorted endoglin^hi fraction; mean (SD) of 2 studies

| Substance | specific mean fluorescence intensity (MFI) (human endoglin (human) [1]) | complement fixation: lysis of HUVEC with guinea-pig complement (trypan blue) (% lysis at 100 µg/ml) (human endoglin (human) [2]) | percent blocking (human endoglin (human) [3]) | MFI (human endoglin (human) [4]) | complement fixation relative to TEC-4 (human endoglin (human) [2]) | complement fixation: lysis of HUVEC with guinea-pig complement (trypan blue) (% lysis at 1 µg/ml) (human endoglin (human) [2]) | MFI (human endoglin (human) [5]) |
| --- | --- | --- | --- | --- | --- | --- | --- |
| TEC-4 (antibody) | 200 | 48 | 11% |  |  |  |  |
| TEC-11 (antibody) | 200 |  |  | 61.6 | 100 fold | > 50 | 270 |

— patent publication US7112317
